± gives the half width of the 95% confidence interval.

Data set [1] in a line: folding stability dG unfold from chymotrypsin proteolysis; higher = more stable. The essentials:
(§1)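 Mini-proteins designed to be under 80 residues and free of cysteine were carried in a PA-tagged cDNA display construct and digested with trypsin and with chymotrypsin. Each protease was applied at 11 threefold-diluted concentrations, alongside a no-protease condition, before sequencing. K50 came from Bayesian fitting of the sequencing counts, and unfolding free energy was obtained by comparing it with a sequence-predicted unfolded-state K50 and a shared folded-state K50, for each protease separately or for both together. Designs were retained only if their AlphaFold2 dimer inter-PAE exceeded 15.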

A short description of data set [2]: folding stability dG unfold from trypsin proteolysis; higher = more stable. A digest of the protocol:
as §1

A short description of data set [3]: folding stability dG unfold (combined trypsin and chymotrypsin); higher = more stable. The essentials:
as §1

In the case of “SAGGSAGGSAGGDVKVTVTVTVDPETGEPVVEVTLELPGDRAIRARFTPDGRLLSVEEVDSAGGSAGGSAGG [r7_454_TrMRF]”, the “folding stability dG unfold” value in data set [1] was 3.01 ± 0.16 kcal/mol; in data set [2], 3.79 ± 0.25 kcal/mol; in data set [3], 3.51 ± 0.21 kcal/mol.
Regarding “SAGGSAGGSAGGEAFEVERVELVLDPETGTPYLLVYFRDGRVLVYDLPRGTWRVVPAEELSAGGSAGGSAGG [r11_922_TrMRF]”, the “folding stability dG unfold” value is 3.06 ± 0.076 kcal/mol in data set [1], 2.21 ± 0.049 kcal/mol in data set [2] and 2.81 ± 0.065 kcal/mol in data set [3].
Take “SAGGSAGGSAGGEELEVSVSVSVTEVDGKLYLTATVTIDGKEYTFTAELTVTLPPPPPEESAGGSAGGSAGG [r7_413_TrROS_Hall]”: the figures for the “folding stability dG unfold” value in data set [1], in data set [2] and in data set [3] were 3.91 ± 0.19 kcal/mol, 2.77 ± 0.32 kcal/mol and 3.71 ± 0.28 kcal/mol, respectively.
On the same counts, the results for “SAGGSAGGSAGGEIEVKEGEVVLVRLPDGTLLLYDKNTRRLYRFRFKDGKLEVEELELPESAGGSAGGSAGG [r7_527_TrROS_Hall]” are 4.356 ± 0.039 kcal/mol, 3.35 ± 0.06 kcal/mol and 4.03 ± 0.12 kcal/mol.
Consider “SAGGSAGGSAGGEKEEEEVTVTIYNKETDKVIEITVPKGVTEEEARKKAKELAEELEKKKSAGGSAGGSAGG [r7_957_TrROS_Hall]”, for which the results for the “folding stability dG unfold” value in data set [1], in data set [2] and in data set [3] were -0.316 ± 0.21 kcal/mol, 0.29 ± 0.032 kcal/mol and -0.00187 ± 0.19 kcal/mol, respectively.
On the same counts, the results for “SAGGSAGGSAGGEKEPVTLLVVRVDGKLVVVSEEELKKLAEELNVEVEVRLVTVTKEELKSAGGSAGGSAGG [r7_185_TrROS_Hall]” are 1.94 ± 0.033 kcal/mol, 0.567 ± 0.038 kcal/mol and 1.57 ± 0.085 kcal/mol.
On the same counts, the results for “SAGGSAGGSAGGEKIVLKVKPGDTVEVNGKTIKVPPGALITFDKKTKKLTIEPLSPEDLSAGGSAGGSAGGS [r10_353_TrROS_Hall]” are 1.14 ± 0.26 kcal/mol, 0.954 ± 0.058 kcal/mol and 1.11 ± 0.19 kcal/mol.
“SAGGSAGGSAGGEKPKYIIIPATLTVPVLTKEGEGEKVEYKEITLLLIINPDTNEITVSSAGGSAGGSAGGS [r10_533_TrMRF]”: the “folding stability dG unfold” value in data set [1] was 3.07 ± 0.07 kcal/mol; in data set [2], 2.7 ± 0.15 kcal/mol; in data set [3] it was 2.86 ± 0.22 kcal/mol.
On the same counts, the results for “SAGGSAGGSAGGEKTIRITVKNENGETLEIEVSEEDAEELLKALEDAGISLEEITRIEPVSAGGSAGGSAGG [r7_745_TrROS_Hall]” are 1.62 ± 0.098 kcal/mol, 1.92 ± 0.12 kcal/mol and 1.8 ± 0.15 kcal/mol.
On to “SAGGSAGGSAGGEKVTLTLELPAEEIEELAKALAPPGAKVKITKISYDKENKKVTIEIESAGGSAGGSAGGS [r10_1030_TrROS_Hall]”, for which the “folding stability dG unfold” value in data set [1] was found to be 1.4 ± 0.026 kcal/mol; in data set [2] it was 0.937 ± 0.061 kcal/mol; in data set [3], 1.23 ± 0.07 kcal/mol.
On the same counts, the results for “SAGGSAGGSAGGELNIDDIKIDWFPADDMDDRYIFTEKIRGPNGKPTMEVTFWLPAGDLSAGGSAGGSAGGS [r10_155_TrROS]” are -0.261 ± 0.62 kcal/mol, 0.262 ± 0.068 kcal/mol and 0.00836 ± 0.18 kcal/mol.
Regarding “SAGGSAGGSAGGEPDKVSIHINITEEFIEQIKNGKPIPPWARPAIKYAQKKGKKVEIVWSAGGSAGGSAGGS [r10_890_TrROS]”, the results for the “folding stability dG unfold” value in data set [1], in data set [2] and in data set [3] were -0.532 ± 0.53 kcal/mol, -1.04 ± 0.61 kcal/mol and -0.498 ± 0.26 kcal/mol, respectively.
For the sequence “SAGGSAGGSAGGEPIPTKTIEVDEATGTVTVTVTFPPPNETVTVTRPAPPDVSLEEVLASAGGSAGGSAGGS [r10_676_JUSTAS]”, the entries for the “folding stability dG unfold” value in data set [1], in data set [2] and in data set [3] were 1.58 ± 0.15 kcal/mol, 1.07 ± 0.17 kcal/mol and 1.59 ± 0.15 kcal/mol, respectively.
In the case of “SAGGSAGGSAGGERVVRFPYTGTLEDVLEAARRLRRLGGVEVGYDPENGVLLARFKGGGLSAGGSAGGSAGG [r7_219_TrMRF]”, the “folding stability dG unfold” value in data set [1] worked out at 1.6 ± 0.046 kcal/mol; in data set [2] it was 0.54 ± 0.056 kcal/mol; in data set [3], 1.25 ± 0.049 kcal/mol.
The like results for “SAGGSAGGSAGGETITIKNKKTNETVTIEKDKDGNYTITYPDGSKKTYKKGEKISKSALSAGGSAGGSAGGS [r10_98_TrROS_Hall]” were, in that order, 1.18 ± 0.14 kcal/mol, 0.162 ± 0.13 kcal/mol and 0.9 ± 0.18 kcal/mol.
The like results for “SAGGSAGGSAGGEWRTLYIPIPGMPPEFIETFALELLDDGAKVEDIEWNPNNGYLMITVRSAGGSAGGSAGG [r7_906_TrROS]” were, in that order, 2.05 ± 0.056 kcal/mol, 1.37 ± 0.029 kcal/mol and 1.82 ± 0.075 kcal/mol.
“SAGGSAGGSAGGFIPEDGHPDETVQLTTSLTLTTSYTLPNGETVTETHTVPVLFTYKVPSAGGSAGGSAGGS [r10_1135_TrMRF]”: the “folding stability dG unfold” value in data set [1] worked out at 1.02 ± 0.071 kcal/mol; in data set [2], 0.433 ± 0.02 kcal/mol; in data set [3], 0.797 ± 0.054 kcal/mol.
On the same counts, the results for “SAGGSAGGSAGGFVLTFTLPDSVVRITLPEDANPEEIKQRLLEEHGVPIELRLIPPSNPLSAGGSAGGSAGG [r11_805_JUSTAS]” are 0.664 ± 0.38 kcal/mol, 0.726 ± 0.12 kcal/mol and 0.782 ± 0.2 kcal/mol.
“SAGGSAGGSAGGGDFEKVKVRFRYVNPDGGPERDIEIEVEARKEDIPRLLKELKDAGLIESAGGSAGGSAGG [r7_618_TrMRF]”: the “folding stability dG unfold” value in data set [1] worked out at 1.25 ± 0.15 kcal/mol; in data set [2] it was 0.982 ± 0.054 kcal/mol; in data set [3], 1.23 ± 0.099 kcal/mol.
On to “SAGGSAGGSAGGGISEAAASGTPLLVTYTDESGNVTEVVVRPDSPVPLPGVVSAEVRLESAGGSAGGSAGGS [r10_700_JUSTAS]”, for which the “folding stability dG unfold” value came out at 0.167 ± 0.023 kcal/mol in data set [1], 1.05 ± 0.03 kcal/mol in data set [2] and 0.666 ± 0.037 kcal/mol in data set [3].
On the same counts, the results for “SAGGSAGGSAGGGIVIEGDIESIEVEKNPDTDYYLVTVRFKSTDKPYTFVFKKDEKLDVSAGGSAGGSAGGS [r10_819_TrMRF]” are 2.16 ± 0.21 kcal/mol, 1.49 ± 0.036 kcal/mol and 1.77 ± 0.23 kcal/mol.
On the same counts, the results for “SAGGSAGGSAGGGIYEVDENGNPLPPRPYLVLKIGYEVGYLPDGGAGLSLNIEIYPVYDASAGGSAGGSAGG [r7_572_TrMRF]” are 4.25 ± 0.13 kcal/mol, 3.18 ± 0.2 kcal/mol and 3.79 ± 0.23 kcal/mol.
For “SAGGSAGGSAGGGKEISLDELIDIAIELGYPGTIEDLLADPNIKIYPNPYDDKPVILIPDSAGGSAGGSAGG [r7_180_TrMRF]”, the “folding stability dG unfold” value in data set [1] is 0.576 ± 0.053 kcal/mol; in data set [2] it was 1.7 ± 0.065 kcal/mol; in data set [3], 1.25 ± 0.086 kcal/mol.
On the same counts, the results for “SAGGSAGGSAGGGKKILGVQPELFYDPENGTLYVKTVAVGEDENGAPGDADISVEPFPLLSAGGSAGGSAGG [r7_892_TrMRF]” are -0.596 ± 0.54 kcal/mol, 0.242 ± 0.053 kcal/mol and -0.277 ± 0.26 kcal/mol.
The like results for “SAGGSAGGSAGGGKKKVTVEFVIKVPKNSKPVFFTIKGGIKVEFYPIPDTNYALVKVTFGSAGGSAGGSAGG [r7_796_TrMRF]” were, in that order, 3.92 ± 0.12 kcal/mol, 2.46 ± 0.19 kcal/mol and 3.52 ± 0.15 kcal/mol.
The like results for “SAGGSAGGSAGGGKLAIRVEIEPVRTETRLRADGSLETRTEFRVRIEIRPVGNPDDPRNNSAGGSAGGSAGG [r7_523_TrMRF]” were, in that order, 4.36 ± 0.056 kcal/mol, 2.89 ± 0.059 kcal/mol and 3.89 ± 0.073 kcal/mol.
For “SAGGSAGGSAGGGKPVKVIVVEVGGKKVLVTFDEDTGKLTVYNLDTGKTETVTVSPEDLSAGGSAGGSAGGS [r10_669_TrROS_Hall]”, the “folding stability dG unfold” value in data set [1] worked out at 1.67 ± 0.066 kcal/mol; in data set [2] it was 1.83 ± 0.12 kcal/mol; in data set [3], 1.77 ± 0.16 kcal/mol.
The like results for “SAGGSAGGSAGGGKSITKVYTLPNGGKAVAVYNPETGKVEVYFFKPNGKLLEKKTFKAKSAGGSAGGSAGGS [r10_1044_TrMRF]” were, in that order, 2.84 ± 0.07 kcal/mol, 2.18 ± 0.068 kcal/mol and 2.51 ± 0.11 kcal/mol.
The like results for “SAGGSAGGSAGGGLGYRTLTGRVEFELNITYLTEDGSPATLNLRFELELRFVVPVPPDYPSAGGSAGGSAGG [r7_926_TrMRF]” were, in that order, 5.54 ± 0.098 kcal/mol, 3.7 ± 0.14 kcal/mol and 5.37 ± 0.14 kcal/mol.
With “SAGGSAGGSAGGGLSSAPPPVVALSSSVSLVPSPSGGILTVTTTTDAGSGTTTTTTTALSAGGSAGGSAGGS [r10_1137_JUSTAS]”, the “folding stability dG unfold” value in data set [1] was 0.758 ± 0.025 kcal/mol; in data set [2], 2.44 ± 0.068 kcal/mol; in data set [3] it was 1.71 ± 0.042 kcal/mol.
On the same counts, the results for “SAGGSAGGSAGGGMARAEKLPSSWTLVSVTPRDGSTVVTYKLPDGSTLTLDLRPDSYDGASAGGSAGGSAGG [r7_775_JUSTAS]” are 1.46 ± 0.15 kcal/mol, 0.436 ± 0.058 kcal/mol and 1.1 ± 0.075 kcal/mol.
The like results for “SAGGSAGGSAGGGMKVKIETTKLPNGIWRVKVYDENGNFIGEKEFTSEEELEEFKKKVASSAGGSAGGSAGG [r7_476_JUSTAS]” were, in that order, 4.6 ± 0.14 kcal/mol, 2.98 ± 0.25 kcal/mol and 4.49 ± 0.19 kcal/mol.
The like results for “SAGGSAGGSAGGGMMKTVLISLEGVDPSGGPSRRVEIELTLSPEEIPKVIEELAKAGRVLSAGGSAGGSAGG [r7_618_JUSTAS]” were, in that order, -0.0881 ± 0.1 kcal/mol, 0.533 ± 0.058 kcal/mol and 0.232 ± 0.099 kcal/mol.
As to “SAGGSAGGSAGGGMMLAEFLKYDPRNPTATVVSVRTFSDPEEARAEAEKRGLLVRVIEPSAGGSAGGSAGGS [r10_657_JUSTAS]”, the “folding stability dG unfold” value in data set [1] is 0.0192 ± 0.16 kcal/mol; in data set [2] it was -0.45 ± 0.28 kcal/mol; in data set [3], -0.111 ± 0.1 kcal/mol.
The like results for “SAGGSAGGSAGGGMSLSYTVTTSTTVVPAPDGVTVLHPTTTTFPGGPTTTTTTVTVEPAGSAGGSAGGSAGG [r7_701_JUSTAS]” were, in that order, -0.855 ± 0.12 kcal/mol, 0.872 ± 0.021 kcal/mol and 0.409 ± 0.051 kcal/mol.
In the case of “SAGGSAGGSAGGGMVIVTREPENLTFTVYREDPSTGKLRRIGTFPVSPDELEKVLALLSSAGGSAGGSAGGS [r10_275_JUSTAS]”, the entries for the “folding stability dG unfold” value in data set [1], in data set [2] and in data set [3] were 2.47 ± 0.074 kcal/mol, 1.77 ± 0.053 kcal/mol and 2.2 ± 0.079 kcal/mol, respectively.

Values taken from the supplement of paper PMC12764529.
